Drawing on US20250223354A1 (BIOTHEUS, published 2025), this text covers IC50 and EC50 for 2 molecules.

Usually IC50 stands for the concentration at which inhibition is half-maximal. Higher therefore signals a need for much substance. As a reminder, the EC50 is the concentration at which the effect is half-maximal. Low values mean a more potent agent, high ones a less potent agent.

The target in assay [1] is T1, mouse TIGIT overexpressed on CHO cells (mouse, UniProt P86176 29-249).
T1 construct: whole, on cells; also called CHO-muTIGIT cells
T1 sequence (looked up): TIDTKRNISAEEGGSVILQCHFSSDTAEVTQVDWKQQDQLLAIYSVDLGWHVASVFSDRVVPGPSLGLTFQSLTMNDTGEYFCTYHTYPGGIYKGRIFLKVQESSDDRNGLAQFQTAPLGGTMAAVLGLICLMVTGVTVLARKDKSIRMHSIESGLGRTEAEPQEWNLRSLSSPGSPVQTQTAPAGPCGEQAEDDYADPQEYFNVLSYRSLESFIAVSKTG
Nature of the assay: flow cytometry blocking assay: binding of mouse CD155 protein with mouse IgG2a Fc tag to CHO cells overexpressing mouse TIGIT, median fluorescence intensity APC-A; unit from the concentration axis. On the procedure: (§1) The CHO-muTIGIT cells were expanded and adjusted to a cell density of 2×10⁶ cells/mL, added to a 96-well flow plate at 100 μL/well, and centrifuged for later use. The purified antibodies were diluted 3-fold with PBS starting at 400 nM for a total of 12 concentration gradients. […] APC-conjugated goat anti-mouse IgG antibody diluted 100-fold with PBS was added at 100 μL/well, incubated at 4° C. for 30 minutes, and washed twice with PBS. Cells were resuspended with PBS at 100 μL/well, and detected on a CytoFlex flow cytometer, and the corresponding MFI was calculated. Graphpad software was used for graphing analysis to obtain IC₅₀ values.
A general note: In flow cytometry, cells or beads pass a laser one at a time.

Assay [2] addresses T2, human TIGIT expressed on cells (human, UniProt Q495A1 22-244).
T2 construct: whole, on cells; cDNA encoding human TIGIT in pCHO1.0 for CHO cells; also called CHO-huTIGIT cells
T2 sequence (looked up): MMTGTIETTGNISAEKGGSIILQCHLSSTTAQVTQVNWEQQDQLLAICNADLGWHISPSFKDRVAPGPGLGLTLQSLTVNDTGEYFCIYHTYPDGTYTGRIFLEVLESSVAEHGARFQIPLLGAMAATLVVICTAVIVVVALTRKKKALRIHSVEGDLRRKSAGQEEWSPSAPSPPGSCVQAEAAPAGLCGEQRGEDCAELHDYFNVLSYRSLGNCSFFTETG
Description: flow cytometry, competition with human CD155-mouse IgG2a Fc (2 ug/mL) on CHO-huTIGIT cells. How it is done: as §1, with “Specifically, the CHO-huTIGIT” for “The CHO-muTIGIT”, “purified monoclonal” for “purified”, “gradients. The diluted sample was added at 60 μL/well to the cells-carrying 96-well flow plate, and incubated at 4° C. for 30 minutes.” for “gradients.”, “calculated.” for “calculated. Graphpad software was used for graphing analysis to obtain IC₅₀ values.”

The target of assay [3] is T1, mouse TIGIT overexpressed on CHO cells. Description: flow cytometry, competition with mouse CD155-mouse IgG2a Fc (2 ug/mL) on CHO-muTIGIT cells. On the procedure:
as §1

Assay [4] has as its target T2, human TIGIT expressed on cells. Description: flow cytometry blocking assay: binding of human CD155 protein with mouse IgG2a Fc tag to CHO cells overexpressing human TIGIT, median fluorescence intensity APC-A; unit from the concentration axis. How it is done:
as §1, with “Specifically, the CHO-huTIGIT” for “The CHO-muTIGIT”, “purified monoclonal” for “purified”, “gradients. The diluted sample was added at 60 μL/well to the cells-carrying 96-well flow plate, and incubated at 4° C. for 30 minutes.” for “gradients.”, “calculated.” for “calculated. Graphpad software was used for graphing analysis to obtain IC₅₀ values.”

Assay [5] addresses T1, mouse TIGIT overexpressed on CHO cells. Description: flow cytometry, CHO-muTIGIT cells. The text has this: (§2) Specifically, CHO cells overexpressing human TIGIT (CHO-huTIGIT cells), CHO cells overexpressing cynomolgus TIGIT (CHO-cynoTIGIT cells) and CHO cells overexpressing mouse TIGIT (CHO-muTIGIT cells) were generated by transfection of the pCHO1.0 vector (purchased from Invitrogen) with cDNA encoding human TIGIT, cynomolgus TIGIT and mouse TIGIT cloned into the multiple cloning site (MCS), respectively, followed by pressure screening. The overexpressing cells were expanded and adjusted to an appropriate cell density, and added to a 96-well flow cytometry plate. After centrifugation, the cells were added with a gradiently diluted sample to be tested, and incubated at 4° C. for 30 minutes. The cells were washed twice with PBS, and added with a fluorescent secondary antibody correspondingly diluted to an appropriate concentration, then incubated at 4° C. for 30 minutes, and washed twice with PBS. Cells were resuspended with PBS, and detected on a CytoFlex flow cytometer, and the corresponding MFI was calculated. Graphpad software was used for graphical analysis to obtain EC₅₀ values.

For assay [6], the target named is T2, human TIGIT expressed on cells. Description: flow cytometry on CHO cells overexpressing human TIGIT, median fluorescence intensity PE-A; unit from the concentration axis.
Excerpt: as §2

The target of assay [7] is T1, mouse TIGIT overexpressed on CHO cells. Nature of the assay: flow cytometry on CHO cells overexpressing mouse TIGIT, median fluorescence intensity PE-A; unit from the concentration axis.
Excerpt: as §2

Assay [8] has as its target T2, human TIGIT expressed on cells. Description: flow cytometry on activated human primary T cells (TIGIT), readout positive cell (%); unit from the concentration axis. The text has this: The binding activity of the anti-TIGIT antibody of the present invention to TIGIT on the surface of activated T cells was detected based on the flow cytometry detection method.
Specifically, human PBMC were sorted according to the experimental protocol provided by […] Company (stemcell, Cat. No.: #17951C) to obtain human total T cells. […] The activated T cells were adjusted to an appropriate cell density and added to a 96-well flow cytometry plate. After centrifugation, the gradiently diluted sample to be tested was added, and incubated at 4° C. for 30 minutes. Washing was carried out twice with PBS, and a fluorescent secondary antibody diluted to an appropriate concentration was added, incubated at 4° C. for 30 minutes, and washed twice with PBS. […]

Assay [9] has as its target T3, cynomolgus TIGIT overexpressed on CHO cells (cynomolgus, UniProt A0A7N9I9V4 89-312).
T3 construct: whole, on cells; also called CHO-cynoTIGIT cells
Nature of the assay: flow cytometry on CHO cells overexpressing cynomolgus TIGIT, median fluorescence intensity PE-A; unit from the concentration axis.
Excerpt: as §2

Assay [10] has as its target T3, cynomolgus TIGIT overexpressed on CHO …. Nature of the assay: flow cytometry, CHO-cynoTIGIT cells.
Excerpt: as §2

For assay [11], the target named is T2, human TIGIT expressed on cells. Description: flow cytometry, CHO-huTIGIT cells.
Excerpt: as §2

T3 sequence (A0A7N9I9V4 entry or part of it): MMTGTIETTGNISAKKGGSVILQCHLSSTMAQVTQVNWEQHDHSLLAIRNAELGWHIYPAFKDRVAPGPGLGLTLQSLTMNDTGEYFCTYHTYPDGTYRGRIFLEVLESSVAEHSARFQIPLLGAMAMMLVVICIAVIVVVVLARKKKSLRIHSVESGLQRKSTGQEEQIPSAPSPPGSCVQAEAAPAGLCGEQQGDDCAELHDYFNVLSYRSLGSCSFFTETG

B1: anti-TIGIT monoclonal antibody 55796-G1 (antibody, V domains shown)
VH: QLQLQESGPGLVKPAETLSLTCTVSGGSISSYDHYWTWIRQPPGKGLEWIGTVYYSGSTFHNPSLKSRVTIPVDTSKNQFSLKLSSVTAADTAVYYCARVGPDVSHPPFDYWGQGTLVTVSS
VL: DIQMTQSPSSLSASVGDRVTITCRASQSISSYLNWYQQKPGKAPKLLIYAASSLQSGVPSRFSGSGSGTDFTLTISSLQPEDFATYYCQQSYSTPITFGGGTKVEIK
notes: Wild-type human IgG1 heavy chain constant region, human kappa light chain constant region
With B1, the IC50 was 1.5 nM in assay [1], 0.24 nM in assay [2], 1.5 nM in [3] and 0.236 nM in [4]. Moreover, the EC50 in assay [5] came to 2.96 nM; in [6], 0.962 nM; in [7], 2.96 nM; in assay [8], 0.106 nM; in assay [9], 1.32 nM; in assay [10], 1.32 nM. In assay [11], the EC50 was 0.96 nM.

B2: anti-TIGIT monoclonal antibody 55796-G1LALA (antibody, V domains shown)
VH: B1 VH
VL: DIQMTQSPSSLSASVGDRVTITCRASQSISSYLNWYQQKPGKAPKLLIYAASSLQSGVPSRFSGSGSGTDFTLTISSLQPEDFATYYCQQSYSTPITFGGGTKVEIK
notes: Human IgG1 heavy chain constant region modified by L234A, L235A; human kappa light chain constant region; HEK293
Consider B2, for which the IC50 was 1.56 nM in assay [1], 0.37 nM in [2], 1.56 nM in [3] and 0.373 nM in assay [4]. Further, the concentration giving a half-maximal response (EC50) in assay [5] was 3.36 nM; in assay [6], 0.845 nM; in assay [7], 3.36 nM; in assay [8] it was 0.0878 nM; in [9] it was 1.34 nM; in assay [10] it was 1.34 nM. The same molecule registered an EC50 in assay [11] of 0.84 nM.
